In publication PMC11655355 (Nature, 2024):
Blank lines part the entries; values can stand above or below the molecule they belong to.

How the values were obtained:
[1] = target: RCD1–SRO–TAF4 (RST) domain from RCD1, RCD1-RST_(499–572) (UniProt Q8RY59); assay: ITC
[2] = target: T1, RCD1–SRO–TAF4 (RST) domain from RCD1, RCD1-RST_(499–572) (UniProt Q8RY59 499-572); assay: ITC
T1 sequence (looked up): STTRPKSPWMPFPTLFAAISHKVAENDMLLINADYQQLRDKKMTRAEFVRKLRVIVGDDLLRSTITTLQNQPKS

Molecule: D-ANAC046_(319–338), synthetic D-peptide (from UniProt Q9SQQ6 319-338)
fold difference in Kd between L- and D-enantiomer [1]: 15 fold

Molecule: D-DREB2A_(255–272), synthetic D-peptide (from UniProt O82132 255-272)
fold difference in Kd between L- and D-enantiomer [1]: 72 fold

Now from value to molecule:

fold difference in Kd between L- and D-enantiomer [1]: 500 fold
Molecule: D-ANAC013_(254–274), synthetic D-peptide (from UniProt F4IED2 254-274)

binding result [2]: binds
B1: L-DREB2A_(255–272), synthetic peptide (peptide, UniProt O82132 255-272, looked up)
peptide: SSDMFDVDELLRDLNGDD
